Experimental data taken from paper PMC3902912.

Molecular target: T1, CTCF11ZF (UniProt Q61164 266-579)
T1 sequence: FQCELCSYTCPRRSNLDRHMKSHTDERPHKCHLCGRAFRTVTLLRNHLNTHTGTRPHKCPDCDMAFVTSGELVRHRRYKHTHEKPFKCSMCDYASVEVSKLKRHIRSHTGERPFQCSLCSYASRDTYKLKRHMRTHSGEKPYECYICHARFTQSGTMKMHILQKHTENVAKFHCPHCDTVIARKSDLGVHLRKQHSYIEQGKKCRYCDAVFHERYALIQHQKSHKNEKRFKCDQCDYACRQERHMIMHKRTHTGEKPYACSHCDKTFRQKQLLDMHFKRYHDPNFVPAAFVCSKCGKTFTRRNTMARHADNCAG
Assay: FP competition

B1: LowOc1_Scrambled (dsDNA)
DNA 1: CCCTGGTCGGTGTGGCTGGCGACACCTCGCACTCTG
DNA 2: CAGAGTGCGAGGTGTCGCCAGCCACACCGACCAGGG
  binding result: no binding
